Paper PMC3148273

Substrate: CCCCCCCCCCCCC/C=C/[C@@H](O)[C@@H](N)CO
Experiment: purified SK2 Michaelis-Menten kinetics with [γ-32P]ATP
Assay type: biochemical, Homo sapiens
Details: Mg2+

B1: sphingosine kinase 2 (SK2) (Homo sapiens) (protein)
chain: MNGHLEAEEQQDQRPDQELTGSWGHGPRSTLVRAKAMAPPPPPLAASTPLLHGEFGSYPARGPRFALTLTSQALHIQRLRPKPEARPRGGLVPLAEVSGCCTLRSRSPSDSAAYFCIYTYPRGRRGARRRATRTFRADGAATYEENRAEAQRWATALTCLLRGLPLPGDGEITPDLLPRPPRLLLLVNPFGGRGLAWQWCKNHVLPMISEAGLSFNLIQTERQNHARELVQGLSLSEWDGIVTVSGDGLLHEVLNGLLDRPDWEEAVKMPVGILPCGSGNALAGAVNQHGGFEPALGLDLLLNCSLLLCRGGGHPLDLLSVTLASGSRCFSFLSVAWGFVSDVDIQSERFRALGSARFTLGTVLGLATLHTYRGRLSYLPATVEPASPTPAHSLPRAKSELTLTPDPAPPMAHSPLHRSVSDLPLPLPQPALASPGSPEPLPILSLNGGGPELAGDWGGAGDAPLSPDPLLSSPPGSPKAALHSPVSEGAPVIPPSSGLPLPTPDARVGASTCGPPDHLLPPLGTPLPPDWVTLEGDFVLMLAISPSHLGADLVAAPHARFDDGLVHLCWVRSGISRAALLRLFLAMERGSHFSLGCPQLGYAAARAFRLEPLTPRGVLTVDGEQVEYGPLQAQMHPGIGTLLTGPPGCPGREP
With B1 the Km was 10.5 µM.
